Measured values reported in patent US20050107584A1.

How the values were obtained:
[1] = target: human anti-β2GPI mAb ILA-1; assay: cell-based or functional assay
[2] = target: human anti-β2GPI mAb ILA-1; assay: cyto-ELISA on HUVEC coated with 10 µg/ml β2GPI, 10 µM peptide
[3] = target: human anti-β2GPI mAb ILA-1; assay: competition ELISA, mAb 10 µg/ml preincubated with peptide, β2GPI-coated plates, 10 µM peptide
[4] = target: human anti-β2GPI mAb ILA-1; assay: competition ELISA, β2GPI-coated plates, 10 µM peptide
human anti-β2GPI mAb G-3 [5] = assay: as above
human anti-β2GPI mAb G-3 [6] = assay: cell-based or functional assay
human anti-β2GPI mAb G-3 [7] = assay: cyto-ELISA on HUVEC coated with 10 µg/ml β2GPI, 10 µM peptide
[8] = target: human anti-β2GPI mAb ILA-3; assay: competition ELISA, β2GPI-coated plates, 10 µM peptide
[9] = target: human anti-β2GPI mAb ILA-3; assay: cell-based or functional assay
[10] = target: human anti-β2GPI mAb ILA-3; assay: cyto-ELISA on HUVEC coated with 10 µg/ml β2GPI, 10 µM peptide

NTLKTPRVGG [synthetic peptide A (monomer), Asn Thr Leu Lys Thr Pro Arg Val Gly Gly]
% inhibition of adhesion of U937 monocyte cells to HUVEC [1]: 84% | E-selectin expression by HUVEC (ELISA O.D.) [1]: 0.239 O.D. | ICAM-1 expression by HUVEC (ELISA O.D.) [1]: 0.204 O.D. | VCAM-1 expression by HUVEC (ELISA O.D.) [1]: 0.252 O.D. | % inhibition of ILA-1 mAb binding to HUVEC [2]: 95% | % inhibition of ILA-1 mAb binding to β2GPI [3]: 97%

CATLRVYKGG [synthetic peptide C (monomer), Cys Ala Thr Leu Arg Val Tyr Lys Gly Gly]
% inhibition of ILA-1 mAb binding to β2GPI [4]: 11% | % inhibition of G-3 mAb binding to β2GPI (human anti-β2GPI mAb G-3 [5]): 98% | % inhibition of adhesion of U937 monocyte cells to HUVEC (human anti-β2GPI mAb G-3 [6]): 92% | E-selectin expression by HUVEC (ELISA O.D.) (human anti-β2GPI mAb G-3 [6]): 0.215 O.D. | ICAM-1 expression by HUVEC (ELISA O.D.) (human anti-β2GPI mAb G-3 [6]): 0.186 O.D. | VCAM-1 expression by HUVEC (ELISA O.D.) (human anti-β2GPI mAb G-3 [6]): 0.174 O.D. | % inhibition of G-3 mAb binding to HUVEC (human anti-β2GPI mAb G-3 [7]): 92%

KDKATFGTHDG [synthetic peptide B (monomer), Lys Asp Lys Ala Thr Phe Gly Thr His Asp Gly]
% inhibition of ILA-1 mAb binding to β2GPI [4]: 10% | % inhibition of ILA-3 mAb binding to β2GPI [8]: 77% | % inhibition of adhesion of U937 monocyte cells to HUVEC [9]: 95% | E-selectin expression by HUVEC (ELISA O.D.) [9]: 0.211 O.D. | % inhibition of ILA-3 mAb binding to HUVEC [10]: 72%
